According to patent US11306156:
“And” between values parts separate entries of the source, which are not always exact repeats. Equal entries are not always repeated.

Experiments:
[1] = target: D3H44 Fab heavy chain L143K; assay: LCCA, L1:L2 DNA 1:3 normalised to 1:1, SPR of light chain tags; competitor m34
[2] = target: D3H44 Fab heavy chain L143E_K145T_S188L; assay: as above
[3] = target: D3H44 Fab heavy chain S186K, C-terminal ABD2-His6 tag; assay: LCCA: heavy chain co-expressed with two light chains, SPR detection of light chain tags; L1:L2 DNA 1:3, normalized to 1:1; competing light chain m14
[4] = target: D3H44 Fab heavy chain L143E_K145T_S188L, C-terminal ABD2-His6 tag; assay: as above
[5] = target: D3H44 Fab heavy chain Q179K, C-terminal ABD2-His6 tag; assay: as above
[6] = target: D3H44 Fab heavy chain L143E_K145T, C-terminal ABD2-His6 tag; assay: LCCA: heavy chain co-expressed with two light chains, SPR detection of light chain tags; L1:L2 DNA 1:3, normalized to 1:1; competing light chain m15
[7] = target: D3H44 Fab heavy chain Q179K, C-terminal ABD2-His6 tag; assay: as above
[8] = target: D3H44 Fab heavy chain L143E_K145T_S188L, C-terminal ABD2-His6 tag; assay: LCCA: heavy chain co-expressed with two light chains, SPR detection of light chain tags; L1:L2 DNA 1:3, normalized to 1:1; competing light chain m17
[9] = target: D3H44 Fab heavy chain L143R, C-terminal ABD2-His6 tag; assay: as above
[10] = target: D3H44 Fab heavy chain L143E_K145T, C-terminal ABD2-His6 tag; assay: LCCA: heavy chain co-expressed with two light chains, SPR detection of light chain tags; L1:L2 DNA 1:3, normalized to 1:1; competing light chain m13
[11] = target: D3H44 Fab heavy chain S186K, C-terminal ABD2-His6 tag; assay: LCCA: heavy chain co-expressed with two light chains, SPR detection of light chain tags; L1:L2 DNA 1:3, normalized to 1:1; competing light chain m12
[12] = target: D3H44 Fab heavy chain L143E_K145T_S188L, C-terminal ABD2-His6 tag; assay: as above
[13] = target: D3H44 Fab heavy chain Q179R, C-terminal ABD2-His6 tag; assay: as above
[14] = target: D3H44 Fab heavy chain S186K, C-terminal ABD2-His6 tag; assay: LCCA: heavy chain co-expressed with two light chains, SPR detection of light chain tags; L1:L2 DNA 1:9, normalized to 1:1; competing light chain m12
[15] = target: D3H44 Fab heavy chain L143E_K145T_S188L, C-terminal ABD2-His6 tag; assay: as above
[16] = target: D3H44 Fab heavy chain L143E_K145T_S188L, C-terminal ABD2-His6 tag; assay: LCCA: heavy chain co-expressed with two light chains, SPR detection of light chain tags; L1:L2 DNA 1:9, normalized to 1:1; competing light chain m17
[17] = target: D3H44 Fab heavy chain L143R, C-terminal ABD2-His6 tag; assay: as above
[18] = target: D3H44 Fab heavy chain L143E_K145T_S188L, C-terminal ABD2-His6 tag; assay: LCCA: heavy chain co-expressed with two light chains, SPR detection of light chain tags; L1:L2 DNA 1:3, normalized to 1:1; competing light chain m16
[19] = target: D3H44 Fab heavy chain Q179K, C-terminal ABD2-His6 tag; assay: as above
[20] = target: D3H44 Fab heavy chain S186K, C-terminal ABD2-His6 tag; assay: LCCA: heavy chain co-expressed with two light chains, SPR detection of light chain tags; L1:L2 DNA 1:9, normalized to 1:1; competing light chain m13
[21] = target: D3H44 Fab heavy chain L143E_K145T, C-terminal ABD2-His6 tag; assay: as above
[22] = target: D3H44 Fab heavy chain L143E_K145T_S188L; assay: LCCA, L1:L2 DNA 1:3 normalised to 1:1, SPR of light chain tags; competitor m37
[23] = target: D3H44 Fab heavy chain L143E_K145T; assay: LCCA, L1:L2 DNA 1:3 normalised to 1:1, SPR of light chain tags; competitor m32
[24] = target: D3H44 Fab heavy chain L143E_K145T_Q179E_S188L, C-terminal ABD2-His6 tag; assay: LCCA: heavy chain co-expressed with two light chains, SPR detection of light chain tags; L1:L2 DNA 1:3, normalized to 1:1; competing light chain m20
[25] = target: D3H44 Fab heavy chain S186R, C-terminal ABD2-His6 tag; assay: as above
[26] = target: D3H44 Fab heavy chain S186K, C-terminal ABD2-His6 tag; assay: LCCA: heavy chain co-expressed with two light chains, SPR detection of light chain tags; L1:L2 DNA 1:3, normalized to 1:1; competing light chain m11
[27] = target: D3H44 Fab heavy chain L143E_K145T_S188L, C-terminal ABD2-His6 tag; assay: as above
[28] = target: D3H44 Fab heavy chain Q179R, C-terminal ABD2-His6 tag; assay: as above
[29] = target: D3H44 Fab heavy chain S186K, C-terminal ABD2-His6 tag; assay: LCCA: heavy chain co-expressed with two light chains, SPR detection of light chain tags; L1:L2 DNA 1:9, normalized to 1:1; competing light chain m11
[30] = target: D3H44 Fab heavy chain L143E_K145T_S188L, C-terminal ABD2-His6 tag; assay: as above
[31] = target: D3H44 Fab heavy chain L143E_K145T_S188L; assay: LCCA, L1:L2 DNA 1:3 normalised to 1:1, SPR of light chain tags; competitor m38
[32] = target: D3H44 Fab heavy chain L143E_K145T; assay: LCCA, L1:L2 DNA 1:3 normalised to 1:1, SPR of light chain tags; competitor m35
[33] = target: D3H44 Fab heavy chain L143E_K145T_S188L; assay: LCCA, L1:L2 DNA 1:3 normalised to 1:1, SPR of light chain tags; competitor m40
[34] = target: D3H44 Fab heavy chain L124A_S186K; assay: LCCA, L1:L2 DNA 1:3 normalised to 1:1, SPR of light chain tags; competitor m33
[35] = target: D3H44 Fab heavy chain L143E_K145T_Q179E_S188L, C-terminal ABD2-His6 tag; assay: LCCA: heavy chain co-expressed with two light chains, SPR detection of light chain tags; L1:L2 DNA 1:3, normalized to 1:1; competing light chain m12
[36] = target: D3H44 Fab heavy chain S186R, C-terminal ABD2-His6 tag; assay: as above
[37] = target: D3H44 Fab heavy chain L143E_K145T; assay: LCCA, L1:L2 DNA 1:3 normalised to 1:1, SPR of light chain tags; competitor m34
[38] = target: D3H44 Fab heavy chain L143K_D146G; assay: as above
[39] = target: D3H44 Fab heavy chain L143E_K145T; assay: LCCA, L1:L2 DNA 1:3 normalised to 1:1, SPR of light chain tags; competitor m33
[40] = target: D3H44 Fab heavy chain S186R; assay: as above
[41] = target: D3H44 Fab heavy chain Q179K; assay: LCCA, L1:L2 DNA 1:3 normalised to 1:1, SPR of light chain tags; competitor m31
[42] = target: D3H44 Fab heavy chain L143E_K145T; assay: as above
[43] = target: D3H44 Fab heavy chain Q179R; assay: as above
[44] = target: D3H44 Fab heavy chain S186R; assay: as above
[45] = target: D3H44 Fab heavy chain L143E_K145T_S188L; assay: LCCA, L1:L2 DNA 1:3 normalised to 1:1, SPR of light chain tags; competitor m33
[46] = target: D3H44 Fab heavy chain L143R; assay: as above
[47] = target: D3H44 Fab heavy chain L143R; assay: LCCA, L1:L2 DNA 1:3 normalised to 1:1, SPR of light chain tags; competitor m34

D3H44 light chain Q124E_V133D_S176L
H2L2:H2L1 normalized median ratio [1]: 90% | H1L1:H1L2 normalized median ratio [2]: 26%

D3H44 light chain Q124R_Q160K_T178R, N-terminal HA or FLAG tag
H2L2:H2L1 normalized median ratio [3]: 3% | H1L1:H1L2 normalized median ratio [4]: 57% | H1L1:H1L2 normalized median scalar value ln(r1/f1) [4]: 0.28 and 0.23 | H2L2:H2L1 normalized median ratio [5]: 3% | H1L1:H1L2 normalized median ratio [6]: 47% | H1L1:H1L2 normalized median scalar value ln(r1/f1) [6]: -0.14 | H2L2:H2L1 normalized median ratio [7]: 2% | H1L1:H1L2 normalized median ratio [8]: 74% | H1L1:H1L2 normalized median scalar value ln(r1/f1) [8]: 1.04 | H2L2:H2L1 normalized median ratio [9]: 6% | H1L1:H1L2 normalized median ratio [10]: 82% | H1L1:H1L2 normalized median scalar value ln(r1/f1) [10]: 1.77 | H2L2:H2L1 normalized median ratio [11]: 6% | H1L1:H1L2 normalized median ratio [12]: 74% | H1L1:H1L2 normalized median scalar value ln(r1/f1) [12]: 1.03 | H2L2:H2L1 normalized median ratio [13]: 5% | H2L2:H2L1 normalized median ratio [14]: 11% | H1L1:H1L2 normalized median ratio [15]: 84% | H1L1:H1L2 normalized median scalar value ln(r1/f1) [15]: 1.65 | H1L1:H1L2 normalized median ratio [16]: 86% | H1L1:H1L2 normalized median scalar value ln(r1/f1) [16]: 1.79 | H2L2:H2L1 normalized median ratio [17]: 21% | H1L1:H1L2 normalized median ratio [18]: 59% | H1L1:H1L2 normalized median scalar value ln(r1/f1) [18]: 0.37 | H2L2:H2L1 normalized median ratio [19]: 3% | H2L2:H2L1 normalized median ratio [20]: 10% | H1L1:H1L2 normalized median ratio [21]: 81% | H1L1:H1L2 normalized median scalar value ln(r1/f1) [21]: 1.44

D3H44 light chain Q124R_Q160K_T178R
H1L1:H1L2 normalized median scalar value ln(r1/f1) [22]: 0.03 | H1L1:H1L2 normalized median scalar value ln(r1/f1) [23]: -0.14

D3H44 light chain Q124E_S131T_T178Y_T180E, N-terminal HA or FLAG tag
H1L1:H1L2 normalized median ratio [24]: 17% | H2L2:H2L1 normalized median ratio [25]: 88% | H2L2:H2L1 normalized median ratio [26]: 94% | H1L1:H1L2 normalized median ratio [27]: 26% | H2L2:H2L1 normalized median ratio [28]: 95% | H2L2:H2L1 normalized median ratio [29]: 89% | H1L1:H1L2 normalized median ratio [30]: 16%

D3H44 light chain Q124R
H1L1:H1L2 normalized median scalar value ln(r1/f1) [31]: 1.06 | H1L1:H1L2 normalized median scalar value ln(r1/f1) [32]: 0.71 | H1L1:H1L2 normalized median scalar value ln(r1/f1) [33]: 0.82

D3H44 light chain Q124E_V133W_T180E
H1L1:H1L2 normalized median scalar value ln(r1/f1) [34]: 2.54

D3H44 light chain Q124R_T178R, N-terminal HA or FLAG tag
H1L1:H1L2 normalized median ratio [35]: 83% | H1L1:H1L2 normalized median scalar value ln(r1/f1) [35]: 1.62 | H2L2:H2L1 normalized median ratio [36]: 12%

D3H44 light chain Q124E_V133D
H1L1:H1L2 normalized median ratio [37]: 33% | H2L2:H2L1 normalized median ratio [38]: 91%

D3H44 light chain S131E
H1L1:H1L2 normalized median ratio [39]: 53% | H2L2:H2L1 normalized median ratio [40]: 96% | H2L2:H2L1 normalized median ratio [41]: 97% | H1L1:H1L2 normalized median ratio [42]: 54% | H2L2:H2L1 normalized median ratio [43]: 97% | H2L2:H2L1 normalized median ratio [44]: 95%

D3H44 light chain Q124E_V133E
H1L1:H1L2 normalized median ratio [45]: 49% | H2L2:H2L1 normalized median ratio [46]: 96%

D3H44 light chain Q124E_V133E_S176L
H1L1:H1L2 normalized median ratio [2]: 31% | H2L2:H2L1 normalized median ratio [47]: 86%
